The nature of data set [1]: Stability of fluorophore-dendrimer conjugates in PBS (HPLC). It is filed as physicochemical. The settings on record: PBS (pH 7.4), after 72 hours. An excerpt: The FITC-labeled compound (G4-PAMAM-O-GABA-NH-FITC) was purified by dialysis (membrane cutoff 1000 Da) against DMSO in dark by replacing DMSO, to remove un-reacted compounds. Purity of G4-PAMAM-O-GABA-NH-FITC conjugate was confirmed by HPLC using fluorescent detector (λex=495 nm/λem=521 nm).
G4-PAMAM-O-GABA-NH2 dendrimer was reacted with the Alexa 488 carboxylic acid succinimidyl ester (Scheme-6). The N-succinimidyl activated ester of Alexa 488 couples to the terminal primary amines to yield amide-linked G4-PAMAM-O-GABA-Alexa conjugate. The formation of conjugate was confirmed by HPLC (FIG. 89) using florescent detector (λex=495 nm/λem=521 nm). […] The absence of any other peak in chromatogram after dialysis of product confirms the absence of free alexa. […] The dendrimer alexa conjugate was prepared for enhanced histological visualization of samples as confocal imaging causes quenching and also to match with the intensities of other alexa conjugated secondary antibodies.

A short description of data set [2]: Transmembrane transport and permeability, chorioamnion. It is filed as in vitro ADME, human. An excerpt:
(§1) All human fetal membrane specimens were obtained at the time of cesarean section for obstetrical indications. The fetal membrane comprising chorioamniotic membrane (intact membranous tissue containing both amnion and chorion together) (n=7) and amnion (n=7) and chorion (n=7) were separately procured (size 6×9″). Each membrane was cut into 9 pieces for the 9 sets of diffusion chamber. The fresh membranes were collected immediately after the delivery, washed with PBS to remove the blood and stored in PBS until (˜1 h at 4° C.) it was mounted on the diffusion chamber (37±0.5° C.). Excess membranes were trimmed. The diffusion experiments were performed for 48 hours by mounting the membrane in the chamber to study the transport across the membranes. In all the experiments with chorioamniotic membrane the choriodecidua (maternal side) was placed facing the donor chamber and the amnionic epithelium (fetal side) was facing the receptor chamber. The chorion and amnion were mechanically separated by gently pulling the two membranes apart. For the chorion, the side attached to amnion was placed facing the receptor chamber and for the amnion the side attached to the chorion was placed facing the donor chamber in the diffusion apparatus. For histological evaluation, the tissue samples were collected at 0.5, 1, 2, 3 and 4 hours for and were fixed in 10% formalin overnight. Further, some sections were analyzed by hematoxylin and eosin (H & E) staining. The membrane thickness was measured using the Mitutoyo Super Caliper by placing the respective membranes between the two glass slides and subtracting the thickness of the glass slides without the membrane.
Permeation experiments were carried out using a two-chamber (donor and receptor) side-by-side Permegear diffusion cell with a chamber volume of 3 mL and with a diameter of 13 mm and a diffusional area of 1.32 cm^2. The fetal membranes (chorion and amnion together, amnion and chorion) each (n=9) were mounted between two halves of the donor and receptor cell (9 sets), which were further clamped together and sealed tightly with the rubber packing at the end of each glass chamber. […] The donor cell (volume 3 mL) was filled with solution of compounds whose permeability was evaluated. […] The concentration of compound in the receptor medium was determined using a Molecular Devices SpectroMax M2, UV visible and Fluorescent plate reader at ex 495/em 521. The cumulative amount of compound transported across the membrane in the receptor cell was determined using a calibration curve (a transport of 50% corresponds equilibrium achieved). […]
(§2) [formula] […] The thickness of the chorioamnion, chorion and amnion was 0.22 mm, 0.16 mm and 0.05 mm respectively (n=7), as measured with the help of Mitutoyo Super Caliper. […]

Data set [3] is described as follows: Transmembrane transport and permeability, amnion. It is filed as in vitro ADME, human.
Description: as §1
(§3) Permeation experiments were carried out using a two-chamber (donor and receptor) side-by-side Permegear diffusion cell with a chamber volume of 3 mL and with a diameter of 13 mm and a diffusional area of 1.32 cm^2. The fetal membranes (chorion and amnion together, amnion and chorion) each (n=9) were mounted between two halves of the donor and receptor cell (9 sets), which were further clamped together and sealed tightly with the rubber packing at the end of each glass chamber. The receptor cell (volume 3 mL) was filled with sterile PBS (pH 7.4). The donor cell (volume 3 mL) was filled with solution of compounds whose permeability was evaluated. […] The system was maintained at 37° C. by using a circulating water bath and a jacket surrounding each cell. The donor and receiving medium was continuously stirred (600 rpm) with a magnetic bar to avoid stagnant aqueous diffusion layer effects. Aliquots (200 μL) were collected from the receptor cell every 30 min till first 6 hours and at predetermined intervals thereafter and replaced with equal volume of PBS to maintain sink conditions throughout the study. […] The concentration of compound in the receptor medium was determined using a Molecular Devices SpectroMax M2, UV visible and Fluorescent plate reader at ex 495/em 521. The cumulative amount of compound transported across the membrane in the receptor cell was determined using a calibration curve (a transport of 50% corresponds equilibrium achieved). All the experiments were conducted in dark room. All experiments were done in triplicate and the results are reported as mean±STDev.
[formula] To determine the permeability coefficient, P, a plot of −V/2A ln (1−2Ct/C0) against t was constructed and linear fitting was performed. The slope of the linear portion of the graph yields a permeability coefficient. The thickness of the chorioamnion, chorion and amnion was 0.22 mm, 0.16 mm and 0.05 mm respectively (n=7), as measured with the help of Mitutoyo Super Caliper. […] The FIGS. 93A-C and FIG. 94 show the plots used for calculation of the permeability and the correlation in all the cases ranged from 0.96 to 0.99.

Data set [4] can be described thus: Dynamic light scattering size. It is filed as physicochemical. The note with it: PBS pH 7.4, 37° C. The procedure:
Dynamic light scattering (DLS) analyses were performed using a Malvern Instruments Zetasizer Nano ZEN3600 instrument (Westborough, Mass.) with reproducibility being verified by collection and comparison of sequential measurements. G4-PAMAM-O-GABA-NH-FITC and G4-PAMAM-O-GABA-NH-Alexa conjugate samples were prepared using PBS pH=7.4. DLS measurements were performed at a 90° scattering angle at 37° C. Z-average sizes of three sequential measurements were collected and analyzed.

Data set [5] is described as follows: Transmembrane transport and permeability, chorion. It is filed as in vitro ADME, human.
Description: as §1, §3, §2

Here are results for one substance from patent US10172951B2, “Dendrimer based nanodevices for therapeutic and imaging purposes” (priority 2009, dated 2019).

Several values for one entry are separate records, joined by “and”; a condition that tells them apart may be missing. Equal values may be shown once.

Turning to G4-PAMAM-O-GABA-NH-FITC [D-FITC], the “stability of the conjugate” value in data set [1] is on record as “FITC was not released from the conjugate”. For the same substance, the entries for the “Permeability coefficient, Chorioamnion” value in data set [2] (0.6 mg/mL) and in data set [2] (3 mg/mL) were 7.5×10^−8 cm^2/s and 5.8×10^−8 cm^2/s, respectively. This substance returned a transport across chorioamnion in data set [2] (in 5 hours) of at most 3%. Further, the “Permeability coefficient, Amnion” value in data set [3] (0.6 mg/mL) is 1.86×10^−8 cm^2/s; in data set [3] (3 mg/mL), 2.08×10^−7 cm^2/s. The transport across amnion in data set [3] (in 5 hours) is at most 3%; in data set [3] (in 20 hours, 0.6 mg/mL) it was 22%. The “size (DLS)” value in data set [4] was determined as 5.4 nm. In addition, the “Permeability coefficient, Chorion” value in data set [5] (0.6 mg/mL) and in data set [5] (3 mg/mL) was 2.94×10^−8 cm^2/s each time. For the same substance, the transport across chorion in data set [5] (in 5 hours) is at most 3%; in data set [5] (in 20 hours, 0.6 mg/mL, listed as G4-PAMAM dendrimer), 10% and ~10.5%.
